From PMC9702538

Experiments:
[1] = target: recombinant zebrafish Comp (cartilage oligomeric matrix protein) (zebrafish); assay: non-reducing agarose/polyacrylamide composite gel electrophoresis; purified recombinant Comp; 0.5% agarose/3% polyacrylamide composite gel, SDS sample buffer with 2 M urea, non-reducing; immunoblot with guinea pig antibodies to zebrafish Comp; recombinant rat COMP as marker of the pentamer
[2] = target: zebrafish Comp, tissue-derived (zebrafish (endogenous in 5 dpf whole zebrafish)); assay: non-reducing agarose/polyacrylamide composite gel electrophoresis; sequential extracts (TBS; 1 M NaCl/EDTA; 8 M urea) of whole 5 dpf zebrafish; 0.5% agarose/3% polyacrylamide composite gel, non-reducing; immunoblot with guinea pig antibodies to zebrafish Comp

| stoichiometry N [1] | stoichiometry N [2] | Substance |
| --- | --- | --- |
| 5 | – | recombinant zebrafish Comp (cartilage oligomeric matrix protein) |
| – | 5 | zebrafish Comp, tissue-derived (natural protein) |
